In article PMC11258689, “A Snake Venom Peptide and Its Derivatives Prevent Aβ42 Aggregation and Eliminate Toxic Aβ42 Aggregates In Vitro” (ACS Chemical Neuroscience, 2024):
No end group written: not given here.

Legend:
Details in all cases: both partners purified
amyloid-β (1–42) [1] = molecular target: T1, amyloid-β (1–42) (UniProt P05067 672-713); assay: SPR; Biacore T200; Aβ42 immobilised on a CM-5 chip by amine coupling (900 RU); peptides as analytes 50 to 0.02 μM; 10 mM HEPES + 50 mM NaCl + 0.05% Tween 20, 25 °C, 30 μL/min; multicycle; steady-state affinity model
T1 construct: also called Aβ42; Aβ (1–42); source: bought: Bachem (Bubendorf, Switzerland); suspended in HFIP, lyophilized

amyloid-β (1–42) [2] = molecular target: T1, amyloid-β (1–42); assay: as above; remark: listed apart in the source
amyloid-β (1–42) [3] = molecular target: T1, amyloid-β (1–42); assay: SPR; Biacore T200; CDP-1 immobilised by amine coupling (1916.5 RU); Aβ42 as analyte 1.85 to 0.02 μM; 10 mM HEPES + 50 mM NaCl + 0.05% Tween 20, 25 °C; multicycle; methods: 1:1 kinetic fit with global Rmax (the table's head says steady-state fitting)

B1: crotamine derivative peptide CDP-6 (peptide)
peptide: Ac-KMDSRWRWKCSKK
modifications: not fully specified (C-terminus); also: methylated at the C-terminus
notes: positions worked out from Lys27–Lys39; […]; L-amino acids; source: synthetic peptide (Genscript, purity >95%)
- Kd (amyloid-β (1–42) [1]): 26.4 µM

B2: crotamine derivative peptide CDP-2 (peptide)
peptide: Ac-KMDSRWRWKSSKK
modifications: not fully specified (C-terminus); also: methylated at the C-terminus
notes: […]; L-amino acids; source: synthetic peptide (Genscript, purity >95%)
- Kd (amyloid-β (1–42) [2]): 3.25 µM

B3: crotamine derivative peptide CDP-1 (peptide)
peptide: KMDCRWRWKCCKK
modifications: acetylated at the N-terminus; methylated at the C-terminus
notes: crotamine of Crotalus durissus terrificus venom, Lys27 to Lys39; […]; L-amino acids; For SPR this peptide was immobilised by amine coupling (1916.5 RU); also called crotamine (Lys27–Lys39); mother L-peptide CDP-1; source: synthetic peptide (Genscript, purity >95%)
- Kd (amyloid-β (1–42) [3]): 0.41 µM
